Data published in publication PMC8501021, “Nuclear transporter Importin-13 plays a key role in the oxidative stress transcriptional response” (Nature Communications, 2021).

Legend:
[1] = target: T1, GFP-KLF4 (eGFP fused to full-length mouse Kruppel like factor 4) (mouse, UniProt Q60793 1-483); assay: co-IP; HeLa cells co-expressing GFP, GFP-KLF4 or GFP-SP1 with DSRED-IPO13; treated with or without 125 uM H2O2 for 1 h before lysis; lysates with or without GTPgammaS (1.7 mM, 20 min on ice); precipitated with GFP-Trap resin; Western blot with anti-GFP and anti-IPO13; conditions: partners not purified
T1 construct: Kruppel like factor 4 (KLF4), mouse, full length; inserted in-frame at BamHI and HindIII of pEGFP-C1, C-terminal to eGFP; also called GFP-tagged KLF4; source: HeLa, transfected (pEGFP-C1 construct), in lysate; not shown: eGFP, N-terminal, kept
T1 sequence (Q60793 whole entry, the tested form may be a part): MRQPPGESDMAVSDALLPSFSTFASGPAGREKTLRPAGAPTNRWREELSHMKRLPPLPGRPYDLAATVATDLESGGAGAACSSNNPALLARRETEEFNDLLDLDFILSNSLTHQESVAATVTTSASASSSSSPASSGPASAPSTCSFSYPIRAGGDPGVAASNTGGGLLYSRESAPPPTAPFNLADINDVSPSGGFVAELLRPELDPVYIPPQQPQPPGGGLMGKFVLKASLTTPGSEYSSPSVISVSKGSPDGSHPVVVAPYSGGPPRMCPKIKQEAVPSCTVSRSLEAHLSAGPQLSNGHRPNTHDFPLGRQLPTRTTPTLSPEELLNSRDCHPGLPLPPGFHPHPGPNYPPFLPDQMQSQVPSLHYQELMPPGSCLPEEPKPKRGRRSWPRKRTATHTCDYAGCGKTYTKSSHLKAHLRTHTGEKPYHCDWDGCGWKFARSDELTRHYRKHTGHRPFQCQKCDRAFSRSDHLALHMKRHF

[2] = target: T2, GFP-SP1 (GFP fused to specificity protein 1) (UniProt P08047 1-785); assay: as above; conditions: partners not purified
T2 construct: Specificity protein 1 (SP1); plasmid from Jan-Jong Hung (National Cheng Kung University, Taiwan); Construct was a gift; also called GFP-tagged SP1; source: HeLa, transfected, in lysate
T2 sequence (P08047 whole entry, the tested form may be a part): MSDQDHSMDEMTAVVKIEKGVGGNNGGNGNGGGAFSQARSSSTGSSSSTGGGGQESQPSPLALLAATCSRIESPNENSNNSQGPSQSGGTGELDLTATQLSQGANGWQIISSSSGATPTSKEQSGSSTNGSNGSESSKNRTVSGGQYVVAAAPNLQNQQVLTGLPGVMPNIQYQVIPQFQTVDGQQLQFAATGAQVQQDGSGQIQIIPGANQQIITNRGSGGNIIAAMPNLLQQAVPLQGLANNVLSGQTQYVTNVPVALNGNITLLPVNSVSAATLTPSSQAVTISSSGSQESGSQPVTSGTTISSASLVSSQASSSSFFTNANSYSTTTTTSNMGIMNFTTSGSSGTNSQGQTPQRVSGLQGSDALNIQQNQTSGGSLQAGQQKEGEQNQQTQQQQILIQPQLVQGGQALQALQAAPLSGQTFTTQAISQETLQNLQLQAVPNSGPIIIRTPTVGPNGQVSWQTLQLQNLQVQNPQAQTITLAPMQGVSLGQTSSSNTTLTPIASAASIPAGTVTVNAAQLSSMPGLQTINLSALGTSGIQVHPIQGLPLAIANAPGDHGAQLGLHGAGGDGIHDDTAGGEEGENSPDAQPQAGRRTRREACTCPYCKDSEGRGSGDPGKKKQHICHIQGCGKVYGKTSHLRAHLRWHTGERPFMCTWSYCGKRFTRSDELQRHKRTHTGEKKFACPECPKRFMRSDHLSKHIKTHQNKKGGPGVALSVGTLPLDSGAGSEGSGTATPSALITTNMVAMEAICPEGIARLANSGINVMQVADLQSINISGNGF

- fold increase in co-precipitation with GTPgammaS against no addition, H2O2 treated cells [1]: ~2 fold
- fold increase in co-precipitation with GTPgammaS against no addition, H2O2 treated cells [2]: ~2 fold
B1: DSRED-IPO13 (Importin-13 fused to the DsRed2 fluorescent protein) (natural protein, UniProt O94829 1-963, looked up)
chain: MERREEQPGAAGAGAAPALDFTVENVEKALHQLYYDPNIENKNLAQKWLMQAQVSPQAWHFSWQLLQPDKVPEIQYFGASALHIKISRYWSDIPTDQYESLKAQLFTQITRFASGSKIVLTRLCVALASLALSMMPDAWPCAVADMVRLFQAEDSPVDGQGRCLALLELLTVLPEEFQTSRLPQYRKGLVRTSLAVECGAVFPLLEQLLQQPSSPSCVRQKVLKCFSSWVQLEVPLQDCEALIQAAFAALQDSELFDSSVEAIVNAISQPDAQRYVNTLLKLIPLVLGLQEQLRQAVQNGDMETSHGICRIAVALGENHSRALLDQVEHWQSFLALVNMIMFCTGIPGHYPVNETTSSLTLTFWYTLQDDILSFEAEKQAVYQQVYRPVYFQLVDVLLHKAQFPSDEEYGFWSSDEKEQFRIYRVDISDTLMYVYEMLGAELLSNLYDKLGRLLTSSEEPYSWQHTEALLYGFQSIAETIDVNYSDVVPGLIGLIPRISISNVQLADTVMFTIGALSEWLADHPVMINSVLPLVLHALGNPELSVSSVSTLKKICRECKYDLPPYAANIVAVSQDVLMKQIHKTSQCMWLMQALGFLLSALQVEEILKNLHSLISPYIQQLEKLAEEIPNPSNKLAIVHILGLLSNLFTTLDISHHEDDHEGPELRKLPVPQGPNPVVVVLQQVFQLIQKVLSKWLNDAQVVEAVCAIFEKSVKTLLDDFAPMVPQLCEMLGRMYSTIPQASALDLTRQLVHIFAHEPAHFPPIEALFLLVTSVTLTLFQQGPRDHPDIVDSFMQLLAQALKRKPDLFLCERLDVKAVFQCAVLALKFPEAPTVKASCGFFTELLPRCGEVESVGKVVQEDGRMLLIAVLEAIGGQASRSLMDCFADILFALNKHCFSLLSMWIKEALQPPGFPSARLSPEQKDTFSQQILRERVNKRRVKEMVKEFTLLCRGLHGTDYTADY
notes: Importin-13 (IPO13); PCR generated IPO13 insert put into pDsRed2-C1 at EcoRI and SmaI; also called dsRed2-IPO13; DSRED-tagged IPO13; source: HeLa, transfected (pDsRed2-fused IPO13), in lysate
